Experimental data: article doi:10.1101/2025.09.29.679124 (bioRxiv, 2025)

B1: GST-D14 (50-318) (receptor, rice (Oryza sativa), UniProt Q10QA5 50-318, looked up)
chain: APSGAKLLQILNVRVVGSGERVVVLSHGFGTDQSAWSRVLPYLTRDHRVVLYDLVCAGSVNPDHFDFRRYDNLDAYVDDLLAILDALRIPRCAFVGHSVSAMIGILASIRRPDLFAKLVLIGASPRFLNDSDYHGGFELEEIQQVFDAMGANYSAWATGYAPLAVGADVPAAVQEFSRTLFNMRPDISLHVCQTVFKTDLRGVLGMVRAPCVVVQTTRDVSVPASVAAYLKAHLGGRTTVEFLQTEGHLPHLSAPSLLAQVLRRALARY
B2: Glutathione-S-transferase (GST)-tagged D14L (receptor, rice (Oryza sativa), UniProt Q10J20 1-271, looked up)
chain: MGIVEEAHNLRVVGEGKRGVIVLAHGFGTDQSVWKHLVPHLVADYRVVLFDTMGAGPTNPDYFDFSRYATLEGYALDLLAILQELRVASCIYVGHSVSAVIGAIASISRPDLFSKLVLLSASPRYLNDVDYYGGFEQEDLDELFEAMGSNYKAWCSGFAPLCVGGDMESVAVQEFSRTLFNIRPDIALSVAQTIFQSDVRSLLPLVTVPCHIVQSTKDLAVPVVVSEYLHKHLGGDSIVEVMPSEGHLPQLSSPDIVIPVLLRHIQHDIAV

Key:
[1] = molecular target: T1, MBP-His-D53-D2 (718-1131) (rice (Oryza sativa), UniProt Q2RBP2 718-1131); assay: pull-down
T1 sequence (looked up): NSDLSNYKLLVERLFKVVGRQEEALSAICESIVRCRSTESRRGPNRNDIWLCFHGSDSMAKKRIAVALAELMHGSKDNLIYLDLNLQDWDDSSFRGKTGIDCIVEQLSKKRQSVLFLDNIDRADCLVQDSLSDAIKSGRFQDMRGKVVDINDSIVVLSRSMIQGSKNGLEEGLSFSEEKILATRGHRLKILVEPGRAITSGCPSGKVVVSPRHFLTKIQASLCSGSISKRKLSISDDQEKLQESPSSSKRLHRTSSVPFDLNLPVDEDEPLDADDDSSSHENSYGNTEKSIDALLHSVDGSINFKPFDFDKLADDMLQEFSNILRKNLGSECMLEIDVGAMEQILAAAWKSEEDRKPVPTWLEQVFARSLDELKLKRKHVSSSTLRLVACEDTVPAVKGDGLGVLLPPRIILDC

[2] = molecular target: T2, MBP-tagged D3 (2-720) co-expressed with untagged ASK1 (rice (Oryza sativa) | Arabidopsis, UniProt Q5VMP0 2-720; Q39255 1-160); assay: pull-down
T2 sequence (looked up) 1: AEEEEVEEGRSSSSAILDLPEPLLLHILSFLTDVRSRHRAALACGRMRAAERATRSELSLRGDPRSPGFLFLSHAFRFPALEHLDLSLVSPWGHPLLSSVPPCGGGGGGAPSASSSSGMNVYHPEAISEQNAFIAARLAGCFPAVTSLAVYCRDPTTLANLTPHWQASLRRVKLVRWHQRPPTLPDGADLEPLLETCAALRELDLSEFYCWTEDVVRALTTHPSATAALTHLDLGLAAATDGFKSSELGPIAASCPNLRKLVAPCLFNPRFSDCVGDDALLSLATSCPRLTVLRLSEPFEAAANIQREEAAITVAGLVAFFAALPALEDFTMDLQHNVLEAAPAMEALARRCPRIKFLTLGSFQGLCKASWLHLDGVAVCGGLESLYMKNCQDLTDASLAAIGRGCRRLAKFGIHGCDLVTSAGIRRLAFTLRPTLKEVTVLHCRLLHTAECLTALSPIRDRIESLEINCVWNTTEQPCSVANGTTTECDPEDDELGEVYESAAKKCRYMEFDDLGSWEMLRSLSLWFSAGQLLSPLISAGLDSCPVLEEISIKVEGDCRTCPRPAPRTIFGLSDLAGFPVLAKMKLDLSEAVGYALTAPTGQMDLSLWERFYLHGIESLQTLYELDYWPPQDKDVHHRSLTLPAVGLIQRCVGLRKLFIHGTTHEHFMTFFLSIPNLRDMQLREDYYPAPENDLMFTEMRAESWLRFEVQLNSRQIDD
T2 sequence (looked up) 2: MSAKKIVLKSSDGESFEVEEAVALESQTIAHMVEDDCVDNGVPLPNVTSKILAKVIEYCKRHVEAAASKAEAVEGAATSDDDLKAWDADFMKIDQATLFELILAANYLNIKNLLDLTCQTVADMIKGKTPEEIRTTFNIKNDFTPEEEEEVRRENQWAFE

Row | Binder | binding result [1] | binding result [2]
1 | B1 | binds | –
2 | B2 | – | binds
